Source: patent publication US20160333065A1

Biological target: HLA-A1 (A*0101) (human)
Assay: cell competition vs YLEPAC(FI)AKY, stripped CAA B-LCL, FACS

IC50: 1 µM
Binder: ITDDQLLAL (modifications not checked) [PRAME peptide …]
